Experimental data published in patent US20090291885A1.
Like-named read-outs stand apart in the source and are kept apart here. Ends that are not written are not given here.

Assays:
Test in all cases: cell-based or functional assay
[1] = biological target: human Kv1.3 voltage-gated potassium channel (human) (UniProt P22001)
[2] = biological target: human Kv1.3 channel (human) (UniProt P22001)
[3] = biological target: human Kv1.1 channel (human) (UniProt Q09470)
[4] = biological target: human Kv1.3 channel (human) (UniProt P22001); remark: listed apart in the source

human Kv1.3 channel (human), sequence (P22001 whole entry): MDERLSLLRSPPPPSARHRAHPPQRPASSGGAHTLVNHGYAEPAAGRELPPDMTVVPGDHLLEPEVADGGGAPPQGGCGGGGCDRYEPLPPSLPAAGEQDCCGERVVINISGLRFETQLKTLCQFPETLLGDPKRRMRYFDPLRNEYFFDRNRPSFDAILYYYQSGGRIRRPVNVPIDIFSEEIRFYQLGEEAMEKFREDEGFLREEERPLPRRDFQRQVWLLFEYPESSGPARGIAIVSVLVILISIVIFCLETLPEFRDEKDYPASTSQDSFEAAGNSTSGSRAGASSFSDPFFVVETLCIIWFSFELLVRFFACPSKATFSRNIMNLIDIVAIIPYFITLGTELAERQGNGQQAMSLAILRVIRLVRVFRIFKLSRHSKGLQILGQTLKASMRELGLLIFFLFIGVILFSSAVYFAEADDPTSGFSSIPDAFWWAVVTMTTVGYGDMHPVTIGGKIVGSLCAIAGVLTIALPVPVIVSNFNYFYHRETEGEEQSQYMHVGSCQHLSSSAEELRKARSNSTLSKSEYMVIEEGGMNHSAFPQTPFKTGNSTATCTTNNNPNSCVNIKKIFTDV
human Kv1.3 voltage-gated potassium channel (human), sequence (P22001 whole entry): as above
human Kv1.1 channel (human), sequence (Q09470 whole entry): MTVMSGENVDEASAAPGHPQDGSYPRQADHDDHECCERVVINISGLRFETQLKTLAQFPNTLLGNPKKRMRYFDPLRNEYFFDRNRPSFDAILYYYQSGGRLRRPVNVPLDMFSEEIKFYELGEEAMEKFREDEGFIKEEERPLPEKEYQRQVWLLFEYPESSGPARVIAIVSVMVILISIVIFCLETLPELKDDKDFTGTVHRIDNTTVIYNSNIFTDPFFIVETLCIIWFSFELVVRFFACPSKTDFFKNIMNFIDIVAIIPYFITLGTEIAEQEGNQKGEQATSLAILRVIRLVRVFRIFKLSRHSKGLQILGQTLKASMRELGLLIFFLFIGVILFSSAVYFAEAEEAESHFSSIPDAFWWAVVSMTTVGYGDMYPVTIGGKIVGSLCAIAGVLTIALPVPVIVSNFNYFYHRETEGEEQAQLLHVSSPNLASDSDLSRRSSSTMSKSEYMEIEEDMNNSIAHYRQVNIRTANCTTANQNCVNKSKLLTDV

20k PEG-ShK (peptide) was tested, and the WB/IFNg (IC50, nM) [1] was 0.065 nM and the WB/IL-2 (IC50, nM) [1] was 0.046 nM.

E. coli-derived Fc-L-OSK1 (Fc fusion) showed a Kv1.3 IC50 by WCVC [2] of 3.2 nM.

Work on “E. coli-derived Fc-L-ShK[1-35] (Fc fusion)” yielded a Kv1.3 IC50 by WCVC [2] of 1.4 nM.

Work on “E. coli-derived Fc-L-ShK[2-35] (Fc fusion)” yielded a Kv1.3 IC50 by IWQ [2] of 2.8 nM and a Kv1.3 IC50 by WCVC [2] of 1.3 nM.

Molecule “E. coli-derived ShK[2-35]-L-Fc (Fc fusion)” has a Kv1.3 IC50 by IWQ [2] of 4.9 nM.

Work on “E. coli-derived Shk[1-35]-L-Fc (Fc fusion)” yielded a Kv1.3 IC50 by IWQ [2] of 2.4 nM.

Work on Fc-L10-OSK1 (Fc fusion) yielded a fold loss of potency in Kv1.3 current block against synthetic OSK1 [2] of 5 fold.

Fc-L25-ShK[2-35] (Fc fusion) gave an IC50, whole cell patch clamp electrophysiology on HEK293/Kv1.3 cells [2] of 150 pM.

Work on GGGGS-Osk1 (peptide) yielded a WB/IFNg IC50 [2] of 2.2 nM and a WB/IL-2 IC50 [2] of 1.36 nM.

Molecule OSK1 (wild-type) (peptide) has a Kv1.1 IC50, whole cell patch clamp [3] of 0.202 nM, a Kv1.3 IC50, whole cell patch clamp [2] of 0.039 nM and a Kv1.3 Selectivity (= Kv1.1/Kv.3 IC50) [2] of 5 fold.

For PEG-OSK1 (peptide), the peak IC50, whole cell patch clamp on HEK293 cells stably expressing human Kv1.3 [2] was 1.28 nM.

Synthetic OSK1 (peptide) showed a hKv1.1: IC50 [pM] [3] of 160 pM, a hKv1.1/hKv1.3 (selectivity ratio of the IC50s) [2] of 4 fold and a hKv1.3: IC50 [pM] [2] of 39 pM.

In the case of RSCIDTIPKSRCTAFQCKHSMKYRLSFCRKTCGTC (not fully specified; ends and bridges not checked) [20K PEG-ShK[1-35]], the peak IC50, whole cell patch clamp on HEK293 cells stably expressing human Kv1.3 [4] is reported as 0.169 nM.
